Source: US5578451A, “Methods and systems for screening potential alzheimer's disease therapeutics” (The General Hospital Corporation, priority 1995, dated 1996)
Several values for one entry are separate records, joined by “and”; a condition that tells them apart may be missing. Equal values may be shown once. Read-outs that look alike come from different tables or passages of the source. One block for each molecule: values may come before it.

Tests used:
[1] = target: T1, Go (Bos taurus, UniProt P08239)
Description: Trimeric Go was purified to homogeneity from bovine brain as described (Katada et al., FEBS Lett. 213:353-358, 1987). This Go preparation was stored in 20 mM Hepes/NaOH (pH 7.4), 1 mM EDTA, and 0.7% CHAPS, and diluted ≥10 fold for assays.
GTPγS binding to Go was assayed in a buffer containing 50 mM Hepes/NaOH (pH 7.4), 100 μM EDTA, 120 μM MgCl2, and 60 nM [^35 S]GTPγS (DuPont-New England Nuclear) at 37° C., and the fraction of total Go bound to GTPγS was measured as described (Okamoto et al., Cell 62:709-717, 1990). […] The total amount of Go in a given preparation was defined as the saturation amount of GTPγS bound to Go following a 30-min incubation of Go with 10 mM Mg^2+ and ≥60 nM GTPγS at 30° C.
In the experiment shown in FIG. 1(b), 10 nM Go was incubated with water or 100 μM of each peptide for 2 min, and the amount of GTPγS bound to Go at the end of this period was measured. In the experiment shown in FIG. 1(c), 10nM Go was incubated with water (O) or 100 μM peptide 20 (SEQ ID NO: 1) (.oval-solid.), and GTPγS binding was measured at the indicated times. […] GTPγS binding to Go in the presence or absence of peptide 20 (SEQ ID NO: 1) obeyed first-order kinetics according to the equation
(B is the binding at time t; BT is the total binding observable at infinite time; and kapp is the rate constant for GTPγS binding).
In this experiment, 10 nM Go was incubated with various concentrations of [sequence] (peptide 20, SEQ ID NO: 1; .quadrature.), [sequence] (H-deleted, SEQ ID NO: 14; .diamond.), [sequence] (HH-deleted, SEQ ID NO: 15; .quadrature.), [sequence] (RHLSK-deleted, SEQ ID NO: 16; .diamond-solid.), or [sequence] (KQYTSI-added, SEQ ID NO: 17; .box-solid.), and GTPγS binding to Go at 2 min. was measured.

[2] = test system: Gi1; test: Effect of peptide on G proteins other than Go: Gi1; assay type: biochemical; details: data not shown
Source text: (§1) Biophys. Acta 161:1280-1285, 1989.

[3] = target: T1, Go; test: Storage stability of the Go-activating ability of the peptide; assay type: physicochemical, bovine; details: storage at either -4° C. or -20° C.
[4] = test system: Gi3; test: Effect of peptide on G proteins other than Go: Gi3; assay type: biochemical; details: data not shown
Source text: as §1

[5] = target: T2, APP-Go complex (Bos taurus, UniProt P08239); test: 22C11 (anti-APP) immunoprecipitation of APP and co-precipitation of Go from solubilized brain membranes; assay type: binding, bovine; details: 10 μM peptide, FIG. 2d
T2 construct: APP immunoprecipitated with 22C11, co-precipitated Go alpha detected by GC/2
Description: As a control, 2 μg/ml of rabbit IgG was used. After overnight shaking at 4° C., the immunoprecipitated sample was centrifuged at 5000 rpm for 5 min. The pellet was washed three times with ice-cold buffer C and the final pellet was applied to SDS-PAGE. Electroblotting onto a PVDF sheet was performed as described (Okamoto et al., J. Biol. Chem. 266:1085-1091, 1991). After blocking with PBS containing 2% skim milk and 1% BSA, the sheet was incubated with the first antibody [1 μg/ml of 22C11; 1/1000 dilution of anti-Go α monoclonal antibody GC/2 (DuPont-New England Nuclear); 1/1000 dilution of 1C1, a monoclonal antibody against the C-terminal peptide 677-695 of APP695 ] for 4 h, and then exposed to horseradish peroxidase-conjugated goat IgG reactive for mouse or rabbit immunoglobulins for 2-4 h at room temperature. The antigenic bands were detected with an ECL detection kit (Amersham). YL1/2 (SERA Lab), an anti-tubulin antibody, was used at 1:500 dilution for immunodetection.
In this experiment, solubilized brain membranes were incubated with 22C11-coated beads in the presence of 10 μM peptide 20 (SEQ ID NO: 1; 2nd and 5th lanes) or 10 μM of the control peptide, peptide677-695 of APP (SEQ ID NO: 13; 3rd and 6th lanes), or in the absence of both of these peptides (1st and 4th lanes). In this experiment, an anti-mouse IgG antibody different from that used in (a) was employed.

[6] = test system: Gi2; test: Effect of peptide on G proteins other than Go: Gi2; assay type: biochemical; details: data not shown
Source text: as §1

[7] = test system: smg p25A; test: Effect of peptide on low molecular weight G protein smg p25A; assay type: biochemical; details: data not shown
Source text: as §1

[8] = test system: GS; test: Effect of peptide on G proteins other than Go: GS; assay type: biochemical; details: data not shown
Source text: as §1

[9] = target: c-Ki-ras p21; test: Effect of peptide on low molecular weight G protein c-Ki-ras p21; assay type: biochemical; details: data not shown
Source text: as §1

[10] = test system: Go reconstituted in phospholipid vesicles; test: GTPγS binding to Go reconstituted in phospholipid vesicles; assay type: biochemical, bovine; details: FIG. 1(e)
Description: as §1
GTPγS binding to peptides was negligible.
Reconstitution of Go into phospholipid vesicles was accomplished with 1 mg/ml of phosphatidylcholine, using the gel filtration method (Nishimoto et al., J. Biol. Chem. 264:14029-14038, 1989). In a final incubation for GTPγS binding, 5 nM of reconstituted Go was used.
As illustrated in FIG. 1(e), Go reconstituted in phospholipid vesicles was incubated with transmembrane region-connected peptide 20 ([…], SEQ ID NO: 18; .quadrature.) or the partial sequence of the APP transmembrane domain alone (TVIVITLVML, SEQ ID NO: 7; .quadrature.). Transmembrane region-connected peptide 20 (SEQ ID NO: 18) was also incubated with Go in the absence of phospholipids and the presence of 0.07% CHAPS (.diamond-solid.). The transmembrane region-connected peptide 20 (SEQ ID NO: 18) stimulated Go reconstituted in phospholipid vesicles with a potency 10 times greater than that of peptide 20 (SEQ ID NO: 1). […]
Preactivation of pertussis toxin (Funakoshi, Japan) was carried out by treating the toxin with 100 μM ATP and 1 mM DTT for 10 min at 30° C. […] Increasing concentrations of peptide 20 (SEQ ID NO: 1) were incubated for 2 min with Go reconstituted in phospholipid vesicles which had been treated with pertussis toxin in the presence (.diamond-solid.) or absence (.quadrature.) of NAD, and GTPγS binding to Go was measured.

[11] = target: Trimeric Go purified from bovine brain (bovine) (UniProt P08239); test: 22C11-precipitate of Sf9 membranes incubated with 1 µg purified Go, immunoblot
[12] = target: Trimeric Go purified from bovine brain (bovine) (UniProt P08239)
[13] = 10 nM Go, various peptide concentrations, 2 min, FIG. 1(d)

T2 sequence (P08239 whole entry): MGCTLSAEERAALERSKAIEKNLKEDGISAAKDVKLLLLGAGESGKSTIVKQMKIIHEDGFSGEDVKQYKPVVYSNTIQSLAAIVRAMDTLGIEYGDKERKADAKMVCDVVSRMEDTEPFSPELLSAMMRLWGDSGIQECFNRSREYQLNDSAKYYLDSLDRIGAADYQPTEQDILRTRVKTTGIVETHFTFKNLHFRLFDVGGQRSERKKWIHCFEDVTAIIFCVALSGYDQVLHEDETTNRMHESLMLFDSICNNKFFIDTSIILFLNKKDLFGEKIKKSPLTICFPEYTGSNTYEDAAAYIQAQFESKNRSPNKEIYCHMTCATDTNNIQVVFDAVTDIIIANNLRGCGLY
T2 sequence (Q28053 whole entry partner): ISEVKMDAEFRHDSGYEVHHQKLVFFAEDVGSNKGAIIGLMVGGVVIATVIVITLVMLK
T2 sequence (P62871 whole entry partner): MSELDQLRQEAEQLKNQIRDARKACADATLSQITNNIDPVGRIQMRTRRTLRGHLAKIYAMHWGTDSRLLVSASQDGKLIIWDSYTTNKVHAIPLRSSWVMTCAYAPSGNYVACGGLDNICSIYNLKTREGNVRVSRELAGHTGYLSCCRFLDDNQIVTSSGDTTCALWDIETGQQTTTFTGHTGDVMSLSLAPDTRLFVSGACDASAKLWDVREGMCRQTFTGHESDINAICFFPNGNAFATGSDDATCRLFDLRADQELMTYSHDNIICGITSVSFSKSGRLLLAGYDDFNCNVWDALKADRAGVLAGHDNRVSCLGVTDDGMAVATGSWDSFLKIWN
T2 sequence (P63212 1-68 partner): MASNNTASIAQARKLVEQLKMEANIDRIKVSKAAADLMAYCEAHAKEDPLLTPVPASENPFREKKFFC
T1 sequence (P08239 whole entry): as the sequence (P08239 whole entry) above
T1 sequence (P62871 whole entry partner): as the sequence (P62871 whole entry partner) above
T1 sequence (P63212 1-68 partner): as the sequence (P63212 1-68 partner) above
recombinant full-length APP695 expressed in Sf9 cells (receptor), sequence (chain): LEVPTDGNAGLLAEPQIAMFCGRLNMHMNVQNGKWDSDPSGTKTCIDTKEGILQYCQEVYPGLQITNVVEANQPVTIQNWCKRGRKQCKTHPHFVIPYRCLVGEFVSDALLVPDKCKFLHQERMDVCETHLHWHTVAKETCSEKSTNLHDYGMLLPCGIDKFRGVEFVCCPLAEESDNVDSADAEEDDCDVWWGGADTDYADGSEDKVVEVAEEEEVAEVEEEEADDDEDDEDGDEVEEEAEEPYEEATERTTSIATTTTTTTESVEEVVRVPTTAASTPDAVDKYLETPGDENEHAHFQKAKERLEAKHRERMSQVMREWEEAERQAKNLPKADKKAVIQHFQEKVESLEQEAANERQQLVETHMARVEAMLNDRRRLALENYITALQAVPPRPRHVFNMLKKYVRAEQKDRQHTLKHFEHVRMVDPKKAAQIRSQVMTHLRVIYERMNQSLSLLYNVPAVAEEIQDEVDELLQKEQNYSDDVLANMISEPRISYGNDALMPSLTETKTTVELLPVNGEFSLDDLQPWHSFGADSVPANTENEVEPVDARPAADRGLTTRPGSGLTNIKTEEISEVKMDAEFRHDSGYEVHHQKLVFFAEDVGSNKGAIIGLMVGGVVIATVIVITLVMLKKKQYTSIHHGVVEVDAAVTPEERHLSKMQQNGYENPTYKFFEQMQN

stimulation of c-Ki-ras p21 [9]: not stimulated | stimulation of GTPγS binding to Go ([1]; low (≤100 nM) or high (≥10 mM) Mg2+ concentrations): could not be observed
Molecule: HHGVVEVDAAVTPEERHLSK [peptide 20]
stimulation of Gi1 [2]: not stimulated | ability to activate Go during storage [3]: gradually decreased during storage | stimulation of Gi3 [4]: not stimulated | 22C11-mediated co-precipitation of Go [5]: prevents the 22C11-mediated co-precipitation of Go | precipitation of APP by 22C11 [5]: did not affect the precipitation of APP by 22C11 | stimulation of Gi2 [6]: not stimulated | stimulation of smg p25A [7]: not stimulated | stimulation of GS [8]: not stimulated | rate constant of GTPγS binding to Go ([1]; 10 nM Go, increasing peptide concentrations, FIG. 1(d)): stimulated the rate constant of GTPγS binding to Go in a dose-dependent manner | stimulation of GTPγS binding to Go ([1]; purified trimeric go): 2-3 fold

amount of reconstituted Go precipitated [11]: 0.05 µg/tube and 0.1 µg/tube
Molecule: recombinant full-length APP695 expressed in Sf9 cells (receptor)

GTPγS binding to Go reconstituted in phospholipid vesicles (times greater potency than peptide 20) [12]: 10
Molecule: TVIVITLVMLHHGVVEVDAAVTPEERHLSK [transmembrane region-connected peptide 20]

Second part, the molecule before the results:

Molecule: HGVVEVDAAVTPEERHLSK [H-deleted]
Go-activator function of peptide 20 variants (GTPγS binding to Go at 2 min) [1, 13]: nullified Go -activator function

Molecule: TVIVITLVMLHHGVVEVDAAVTPEERHLSK [peptide 20 linked to a portion of the APP transmembrane region]
effect on Go compared with peptide 20 ([1]; absence of phospholipids, presence of 0.07% CHAPS, FIG. 1(e)): no more potent than peptide 20 | potency in stimulating Go relative to peptide 20 [10]: 10 times

Molecule: GVVEVDAAVTPEERHLSK [HH-deleted]
Go-activator function of peptide 20 variants (GTPγS binding to Go at 2 min) [1, 13]: nullified Go -activator function

Molecule: TVIVITLVML [APP(639-648), a portion of the transmembrane region of APP]
effect on Go (GTPγS binding) [10]: without effect on Go

Molecule: MQQNGYENPTYKFFEQMQN [APP(677-695), peptide corresponding to C-terminal residues 677-695 of APP695, used as control peptide]
22C11-mediated co-precipitation of Go [5]: no discernable effect

Molecule: HHGVVEVDAAVTPEE [RHLSK-deleted]
potency relative to peptide 20 in stimulating Go [1, 13]: several times less potent than peptide 20
